Laboratory results reported in patent US20220162328A1 (SHANDONG BOAN BIOTECHNOLOGY, published 2022).
Residue numbers refer to the chain shown, from its start.

Experiments:
[1] = target: T1, IL4R-Fc-biotin (UniProt P24394 26-232, biotinylated (sites not given)); experiment: competition ELISA: IL4 coated, IL4R-Fc-biotin (0.4 µg/ml) with antibody dilutions
T1 construct: also called IL4R-Fc protein (Sinobiological Co., Ltd., 10402-H02H); not shown: Fc part
T1 sequence (looked up): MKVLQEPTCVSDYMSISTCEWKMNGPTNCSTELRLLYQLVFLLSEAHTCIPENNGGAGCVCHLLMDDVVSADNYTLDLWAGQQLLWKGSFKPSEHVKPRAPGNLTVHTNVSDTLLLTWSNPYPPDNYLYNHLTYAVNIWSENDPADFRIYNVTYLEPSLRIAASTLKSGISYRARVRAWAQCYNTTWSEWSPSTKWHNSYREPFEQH
Method: IL4 (11846-HANE, Sinobiological Co., Ltd.) was coated at the concentration of 0.2 μg/ml in 100 μL/well at 4° C. overnight; 3% skimmed milk powder was used for blocking 1 h; at the same time, 50 μL of IL4R-Fc-biotin (0.4 μg/ml) and 50 μL of candidate antibody at different concentrations (16 μg/mL, 4 μg/mL, 1 μg/mL, 0.25 μg/mL, 0.0625 μg/mL, 0.015625 μg/mL, and 0.00390625 μg/mL), 100 μL in total, were added to the blocked ELISA plate and co-incubated at 37° C. for 1 h; after washing three times with PBST, […]/HRP (R&D, Cat. No.: 890803) was added, and incubated at 37° C. for 1 h; and 100 μL of TMB color developing solution (Beijing Meike Wande Co., Ltd., Cat. No.: 1001) was added to each well. Color development was stopped, after 10 min color development, with the addition of 50 μL of 2 M concentrated sulfuric acid, and OD450 was measured with a microplate reader.

[2] = target: T2, receptors of IL4/IL13 on TF-1 cells and PBMC (IL4 receptor) (human, UniProt P24394 26-825); experiment: cell-based or functional assay
T2 sequence (looked up): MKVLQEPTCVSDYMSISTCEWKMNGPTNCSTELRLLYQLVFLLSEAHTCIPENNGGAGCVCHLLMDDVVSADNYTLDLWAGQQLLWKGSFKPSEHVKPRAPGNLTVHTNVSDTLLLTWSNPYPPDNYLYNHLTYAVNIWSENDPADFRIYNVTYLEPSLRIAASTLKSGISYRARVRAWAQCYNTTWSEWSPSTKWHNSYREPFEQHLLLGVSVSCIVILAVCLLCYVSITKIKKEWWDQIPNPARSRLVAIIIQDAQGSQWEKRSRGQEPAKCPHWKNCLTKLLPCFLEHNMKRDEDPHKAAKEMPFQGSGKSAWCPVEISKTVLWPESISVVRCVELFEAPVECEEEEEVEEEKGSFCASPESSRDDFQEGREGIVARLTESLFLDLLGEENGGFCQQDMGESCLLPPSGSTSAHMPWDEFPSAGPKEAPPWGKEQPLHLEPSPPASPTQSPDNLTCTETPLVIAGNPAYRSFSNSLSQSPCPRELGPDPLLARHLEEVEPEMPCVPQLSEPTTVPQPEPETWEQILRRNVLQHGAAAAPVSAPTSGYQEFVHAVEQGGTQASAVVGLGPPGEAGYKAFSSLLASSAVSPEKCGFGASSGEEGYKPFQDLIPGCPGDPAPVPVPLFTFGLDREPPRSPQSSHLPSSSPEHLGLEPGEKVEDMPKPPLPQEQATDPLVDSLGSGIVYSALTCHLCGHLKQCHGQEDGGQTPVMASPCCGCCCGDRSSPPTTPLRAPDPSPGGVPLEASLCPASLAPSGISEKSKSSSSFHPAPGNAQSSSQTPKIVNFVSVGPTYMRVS

[3] = target: T3, human IL4R (10402-H08H, Sinobiological Co., Ltd.) (human, UniProt P24394 26-232); experiment: ELISA: IL4R coated at graded concentrations (0.4-0 µg/ml), antibody fixed at 2 µg/ml
T3 construct: Bought protein, coated on ELISA plates; also called IL4R-His protein; IL4R protein; not shown: His tag
T3 sequence (looked up): T1 sequence (looked up)
Method: CBS coating solution (pH 9.6 carbonic acid solution) was used to coat protein IL4R (10402-H08H, Sinobiological Co., Ltd.) at different concentrations (0.4 μg/ml, 0.2 μg/ml, 0.1 μg/ml, 0.05 μg/ml, 0.025 μg/ml, 0.0125 μg/ml, 0.00625 μg/ml and 0 μg/ml) in 100 μL/well at 4° C. overnight; 3% skimmed milk powder was used for blocking 1 h at 37° C.; 100 μL of candidate antibody at 2 μg/ml was added to each well and incubated at 37° C. for 1 h; and then goat anti-human IgG (H+L)/HRP (KPL, Cat. No.: 474-1006) was added, and incubated at 37° C. for 1 h. Color development was stopped, after 10 min color development, with the addition of 50 μL of 2 M H₂SO₄ to each well, and OD450 was measured with a microplate reader. Compared with the control antibody, 3 antibodies had close binding sensitivity to IL4R protein.

[4] = target: T1, IL4R-Fc-biotin; experiment: competition ELISA: IL4 coated, IL4R-Fc-biotin (0.4 µg/ml) pre-incubated with antibody dilutions
Method: IL4 (11846-HANE, Sinobiological Co., Ltd.) was coated at the concentration of 0.2 μg/ml in 100 μL/well at 4° C. overnight; 3% skimmed milk powder was used for blocking 1 h; at the same time, IL4R-Fc-biotin (0.4 μg/ml) and candidate antibody at different concentrations (30 μg/mL, 7.5 μg/mL, 1.875 μg/mL, […], 0.1171875 μg/mL and 0 μg/mL) were co-incubated at 37° C. for 1 h, then added to the blocked ELISA plate and co-incubated at 37° C. for another 1 h; then […]/HRP (R&D, Cat. No.: 890803) was added, and incubated at 37° C. for 1 h; color development was stopped, after 10 min color development, with the addition of 50 μL of 2M H₂SO₄ to each well. OD450 was measured with a microplate reader.

[5] = target: T1, IL4R-Fc-biotin; experiment: competition ELISA: IL13RA1 coated, IL4R-Fc-biotin (0.24 µg/ml) and IL13 (1 µg/ml) pre-incubated with antibody dilutions
Method: IL13RA1 (10943-H08H, Sinobiological Co., Ltd.) was coated at the concentration of 0.8 μg/ml in 100 μL/well at 4° C. overnight; 3% skimmed milk powder was used for blocking 1 h; at the same time, IL4R-Fc-biotin (0.24 μg/ml) and IL13 (1 μg/ml, 10369-HANE, Sinobiological Co., Ltd.) and candidate antibody at different concentrations (30 μg/mL, 7.5 μg/mL, 1.875 μg/mL, 0.46875 μg/mL, 0.1171875 μg/mL and 0 μg/mL) were co-incubated at 37° C. for 1 h, then added to the blocked ELISA plate and co-incubated at 37° C. for another 1 h; after washing three times with PBST, […]/HRP (R&D, Cat. No.: 890803) was added, and incubated at 37° C. for 1 h; and after washing four times with PBST, TMB was used for color development for 10 min. 50 μL of 2M H₂SO₄ was added to each well to stop color development. OD450 was measured with a microplate reader.

B1: BA420 (antibody, IgG4, V domains shown)
VH: QVQLVESGGGAVQPGRSLRVSCAASGFTFSSHGMDWVRQVPGKGLEWVAVISYDGKKKYYADSVKGRFTISRDNSKNTLYLQMNSLRAEDTAIYYCVKESRYYYGMDVWGQGTTVTVSS
VL: DIVMTQSPSTLSASVGDRVTITCRASPSISSWLAWYQQKPGKAPKVLIYKSSRLESGVPSRFSGNGSGTEFTLTISSLQPDDFATYYCQQYNGYSWTFGQGTKVEIKR
notes: also called IL4RQ24-BA420
[1]
  IC50: 0.334 µg/mL

B2: BA034 (antibody, IgG4, V domains shown)
VH: B1 VH with G8R
VL: B1 VL with V3Q, P27Q, I29F, S30N, V46L, N65S
notes: also called IL4RQ14-BA034
[1]
  IC50: 0.71 µg/mL

B3: IL4R-BA030-IgG4 (antibody, V domains shown)
VH: QVQLVESGGGVVQPGRSLRLSCAASGFTFSSYAIHWVRQAPGKGLEWVAVISYDGSKKYYADSVKGRFTISRDNSKNTLYLQMNSLRAEDTAVYYCAREYYYGMDVWGQGTTVTVSS
VL: DIVMTQSPSTLSASVGDRVTITCRASQSISNWLAWYQQKPGKAPKRLIYKASSLESGVPSRFSGSGSGTEFTLTISSLQPDDFATYYCQQYNRYFTFGQGTKLEIKR
notes: also called IL4RQ14-BA030
[2]
  IC50 (IL4, ng/mL), PBMC, inhibition of IL4-promoted proliferation: 8.09 ng/mL
  IC50 (IL4, ng/mL), TF-1 Cells, inhibition of IL4-induced proliferation: 227 ng/mL
  IC50 (IL13, ng/mL), TF-1 Cells, inhibition of IL13-induced proliferation: 9 ng/mL
[1]
  IC50: 0.343 µg/mL
[3]
  EC50: 0.031 µg/mL
[4]
  IC50: 0.346 µg/mL
[5]
  IC50: 0.381 µg/mL

B4: BA1301 (antibody, IgG4, V domains shown)
VH: QVQLVESGGGVVQPGRSLRLSCAASGLTFSSYAMHWVRQAPGKGLEWVAVISYDGSNKYYADSVKGRFTISRDNSKNTLYLQMNSLRAEDTAVYYCARGFGYFDLWGRGTLVTVSS
VL: DIQMTQSPSTLSASVGDRVTITCRASQSITRRLAWYQQKPGKAPKLLIYKASSLESGVPSRFSGSGSGTEFTLTISSLQPDDFATYYCQQYVSFSRTFGQGTKVEIKR
notes: also called IL4RQ29-BA1301
[1]
  IC50: 0.592 µg/mL

B5: IL4R-BA173-IgG4 (antibody, V domains shown)
VH: QVQLVESGGGVVQPGRSLRLSCAASGFTFSSYAMHWVRQAPGKGLEWVAVISYDGSNKYYADSVKGRFTISRDNSKNTLYLQMNSLRAEDTAVYYCARGLTTVRGVLYWGQGTLVTVSS
VL: DIVMTQSPSTLSASVGDRVTITCRASQSISTRLAWYQQKPGKAPKLLVYWASSLESGVPSRFSGSGSGTEFTLAISSLQPDDFGTYYCQQYTSYSWTFGQGTKLEIKR
notes: also called IL4RQ6-BA173
[2]
  IC50 (IL4, ng/mL), PBMC, inhibition of IL4-promoted proliferation: 1.02 ng/mL
  IC50 (IL4, ng/mL), TF-1 Cells, inhibition of IL4-induced proliferation: 66 ng/mL
  IC50 (IL13, ng/mL), TF-1 Cells, inhibition of IL13-induced proliferation: 6 ng/mL
[1]
  IC50: 0.354 µg/mL
[3]
  EC50: 0.025 µg/mL
[4]
  IC50: 0.367 µg/mL
[5]
  IC50: 0.302 µg/mL

B6: IL4R-BA167-IgG4 (antibody, V domains shown)
VH: B5 VH
VL: EIVMTQSPSSLSASLGDRVTITCRASQNIGSRLAWYQQKPGKAPKLLIYKASSLESGVPSRFSGSGSGTEFTLTISSLQPDDFATYYCQQYNSYSWTFGQGTKLEIKR
notes: also called IL4RQ6-BA167
[2]
  IC50 (IL4, ng/mL), PBMC, inhibition of IL4-promoted proliferation: 1.52 ng/mL
  IC50 (IL4, ng/mL), TF-1 Cells, inhibition of IL4-induced proliferation: 139 ng/mL
  IC50 (IL13, ng/mL), TF-1 Cells, inhibition of IL13-induced proliferation: 5 ng/mL
[1]
  IC50: 0.458 µg/mL
[3]
  EC50: 0.045 µg/mL
[4]
  IC50: 0.477 µg/mL
[5]
  IC50: 0.407 µg/mL

B7: Dupilumab (antibody, human IgG4 S228P, kappa, V domains shown)
VH: EVQLVESGGGLEQPGGSLRLSCAGSGFTFRDYAMTWVRQAPGKGLEWVSSISGSGGNTYYADSVKGRFTISRDNSKNTLYLQMNSLRAEDTAVYYCAKDRLSITIRPRYYGLDVWGQGTTVTVSS
VL: DIVMTQSPLSLPVTPGEPASISCRSSQSLLYSIGYNYLDWYLQKSGQSPQLLIYLGSNRASGVPDRFSGSGSGTDFTLKISRVEAEDVGFYYCMQALQTPYTFGQGTKLEIKR
[2]
  IC50 (IL4, ng/mL), PBMC, inhibition of IL4-promoted proliferation: 2.87 ng/mL
  IC50 (IL4, ng/mL), TF-1 Cells, inhibition of IL4-induced proliferation: 65 ng/mL
  IC50 (IL13, ng/mL), TF-1 Cells, inhibition of IL13-induced proliferation: 9 ng/mL
